Reference: the supplement of paper PMC6379048

Experiments:
Assay in all cases: Kd (EC50 corrected by depletion factor)
[1] = target: T1, HMGB2 (UniProt P26583)
T1 sequence: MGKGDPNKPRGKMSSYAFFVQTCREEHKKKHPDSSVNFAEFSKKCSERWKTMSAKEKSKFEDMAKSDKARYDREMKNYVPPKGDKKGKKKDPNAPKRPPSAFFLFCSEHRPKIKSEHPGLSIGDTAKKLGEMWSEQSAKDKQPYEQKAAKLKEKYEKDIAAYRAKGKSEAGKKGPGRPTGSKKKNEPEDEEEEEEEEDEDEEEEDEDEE
Method in brief: (§1)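 HEK293-FT lysate (2.5 mg protein/well) was pre-incubated 1 h at 4°C with free RNA oligos (0 nM to 30 μM), then 30 min at 4°C with the same 5′-amino-C6 oligos coupled to NHS-Sepharose beads. Bound proteins were quantified by label-free LC-MS/MS in three biological replicates and two independent experiments, and normalised to the water control. EC50 came from a four-parameter log-logistic fit; Kd is EC50 times a protein-dependent depletion factor.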

[2] = target: SF3B6 (UniProt Q9Y3B4)
Chain of SF3B6 (Q9Y3B4 whole entry): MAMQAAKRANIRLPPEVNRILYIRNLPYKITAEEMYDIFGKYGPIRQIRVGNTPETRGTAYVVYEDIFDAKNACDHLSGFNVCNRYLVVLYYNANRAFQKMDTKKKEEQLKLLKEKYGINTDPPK
Method in brief: as §1

[3] = target: T2, ANGEL2 (UniProt Q5VTE6)
T2 sequence: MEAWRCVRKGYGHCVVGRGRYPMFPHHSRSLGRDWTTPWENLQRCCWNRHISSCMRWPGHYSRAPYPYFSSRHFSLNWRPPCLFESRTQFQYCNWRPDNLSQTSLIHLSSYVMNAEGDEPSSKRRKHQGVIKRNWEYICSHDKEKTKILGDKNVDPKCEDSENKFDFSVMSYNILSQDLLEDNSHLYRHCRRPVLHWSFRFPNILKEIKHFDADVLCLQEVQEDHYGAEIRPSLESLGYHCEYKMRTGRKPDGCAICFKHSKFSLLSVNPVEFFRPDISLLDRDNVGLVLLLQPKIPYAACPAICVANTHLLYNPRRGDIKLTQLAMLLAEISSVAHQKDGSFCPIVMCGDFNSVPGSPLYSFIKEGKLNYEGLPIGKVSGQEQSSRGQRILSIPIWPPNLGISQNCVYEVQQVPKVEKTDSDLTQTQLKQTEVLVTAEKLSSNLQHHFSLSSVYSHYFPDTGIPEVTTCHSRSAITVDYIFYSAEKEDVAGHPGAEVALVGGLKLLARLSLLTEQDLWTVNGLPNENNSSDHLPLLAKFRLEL
Method in brief: as §1

[4] = target: RPS3 (UniProt P23396)
Method in brief: as §1

[5] = target: MRPL19 (UniProt P49406)
Method in brief: as §1

[6] = target: T3, HNRNPA0 (UniProt Q13151)
T3 sequence: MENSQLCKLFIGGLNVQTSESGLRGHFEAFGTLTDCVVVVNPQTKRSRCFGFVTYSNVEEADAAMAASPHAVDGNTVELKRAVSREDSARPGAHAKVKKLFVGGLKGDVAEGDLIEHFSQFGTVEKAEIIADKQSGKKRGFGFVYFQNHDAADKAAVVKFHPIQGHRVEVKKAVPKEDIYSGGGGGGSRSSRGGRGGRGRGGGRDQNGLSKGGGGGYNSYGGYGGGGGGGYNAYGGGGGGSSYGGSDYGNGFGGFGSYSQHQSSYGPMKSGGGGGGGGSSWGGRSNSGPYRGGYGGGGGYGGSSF
Method in brief: as §1

[7] = target: MRPS31 (UniProt Q92665)
Method in brief: as §1

[8] = target: MRPS34 (UniProt P82930)
Method in brief: as §1

[9] = target: MRPS23 (UniProt Q9Y3D9)
Method in brief: as §1

[10] = target: T4, MYEF2 (UniProt Q9P2K5)
T4 sequence: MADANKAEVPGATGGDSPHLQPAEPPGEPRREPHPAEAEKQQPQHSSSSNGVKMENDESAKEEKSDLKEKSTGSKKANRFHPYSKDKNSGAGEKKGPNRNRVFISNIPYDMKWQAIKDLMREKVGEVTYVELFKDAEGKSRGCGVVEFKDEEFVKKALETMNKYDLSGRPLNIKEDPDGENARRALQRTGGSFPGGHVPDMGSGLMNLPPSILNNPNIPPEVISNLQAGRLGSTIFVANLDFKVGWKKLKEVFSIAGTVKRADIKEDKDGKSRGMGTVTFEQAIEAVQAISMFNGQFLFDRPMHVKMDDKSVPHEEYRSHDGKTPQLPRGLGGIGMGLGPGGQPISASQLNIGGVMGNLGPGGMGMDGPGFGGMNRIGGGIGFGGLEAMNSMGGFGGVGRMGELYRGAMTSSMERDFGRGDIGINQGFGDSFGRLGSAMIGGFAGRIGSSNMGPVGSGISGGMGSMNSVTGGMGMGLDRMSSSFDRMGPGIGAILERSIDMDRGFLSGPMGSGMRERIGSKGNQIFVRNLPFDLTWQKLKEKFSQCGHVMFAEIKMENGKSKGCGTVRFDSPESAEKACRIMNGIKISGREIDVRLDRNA
Method in brief: as §1

With AAUAAA as the sequence, how does the Kd [1] read?
The Kd was 2.05 nM.

And the Kd [2]?
The Kd was 2270 nM.

For CUGUCCU, which Kd [3] is on record?
Its Kd is 144 nM.

And the Kd [4]?
The Kd was 109 nM.

What about the Kd [5] of the same sequence?
The Kd was 54.1 nM.

How did the Kd [6] turn out when UAUUUAU was run?
Its Kd is 3.2 µM.

And the Kd [7]?
Its Kd is 52.4 nM.

And the Kd [8]?
Its Kd is 46.2 nM.

What about the Kd [9] of the same sequence?
Its Kd is 15.6 nM.

And the Kd [10]?
The Kd was 2700 nM.
